# According to doi:10.1101/2025.11.27.690911:
# B1: SuperCan (structured_DNA)
# DNA: GAAGAATGAACAGAGTAGGTCAAAGTCAGTGGGGAGTACACCACTGACGACGAGTTGAATGAACGTAGGAAGTAAGTATACGTTCATTCTTAGCTTCCAAAGCAGAGTGCGAGGCTTTGGAGCGTAACTTGCGTTATCGTCGCAAGAAAGCAAACGGTGATGAGACAATC
# Target: thrombin (UniProt P00734;P00734 328-363;364-622)
# Assay: SPR
binder,measurement,value
B1,binding result,binds
